Data published in patent US20250002610A1 (Genmab, published 2025).

Assays:
[1] = target: T1, human DR4 (Death Receptor 4), cell surface expressed on human tumor cell lines (human, UniProt O00220 24-468); assay: flow cytometry, HCT-116 cells, n = 1
T1 construct: also called TNFRSF10A; TRAIL-R1
T1 sequence: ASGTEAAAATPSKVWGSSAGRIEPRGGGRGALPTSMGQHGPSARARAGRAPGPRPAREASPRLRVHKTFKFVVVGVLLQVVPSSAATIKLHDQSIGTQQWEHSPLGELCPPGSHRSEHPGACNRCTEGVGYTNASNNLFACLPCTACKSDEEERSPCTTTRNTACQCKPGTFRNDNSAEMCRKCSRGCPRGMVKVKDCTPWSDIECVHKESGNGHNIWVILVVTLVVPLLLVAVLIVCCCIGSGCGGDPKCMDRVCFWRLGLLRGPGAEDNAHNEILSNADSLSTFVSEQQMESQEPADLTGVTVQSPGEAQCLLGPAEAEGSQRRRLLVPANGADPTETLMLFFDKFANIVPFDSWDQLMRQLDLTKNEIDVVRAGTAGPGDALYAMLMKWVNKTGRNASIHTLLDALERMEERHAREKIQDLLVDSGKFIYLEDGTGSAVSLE

[2] = target: T2, human FAPα (Fibroblast activation protein alpha), cell surface expressed (human, UniProt Q12884 1-760); assay: flow cytometry, Expi293F cells expressing human FAPα, n = 2
T2 construct: Endogenous on human lung fibroblasts and CAFs
T2 sequence: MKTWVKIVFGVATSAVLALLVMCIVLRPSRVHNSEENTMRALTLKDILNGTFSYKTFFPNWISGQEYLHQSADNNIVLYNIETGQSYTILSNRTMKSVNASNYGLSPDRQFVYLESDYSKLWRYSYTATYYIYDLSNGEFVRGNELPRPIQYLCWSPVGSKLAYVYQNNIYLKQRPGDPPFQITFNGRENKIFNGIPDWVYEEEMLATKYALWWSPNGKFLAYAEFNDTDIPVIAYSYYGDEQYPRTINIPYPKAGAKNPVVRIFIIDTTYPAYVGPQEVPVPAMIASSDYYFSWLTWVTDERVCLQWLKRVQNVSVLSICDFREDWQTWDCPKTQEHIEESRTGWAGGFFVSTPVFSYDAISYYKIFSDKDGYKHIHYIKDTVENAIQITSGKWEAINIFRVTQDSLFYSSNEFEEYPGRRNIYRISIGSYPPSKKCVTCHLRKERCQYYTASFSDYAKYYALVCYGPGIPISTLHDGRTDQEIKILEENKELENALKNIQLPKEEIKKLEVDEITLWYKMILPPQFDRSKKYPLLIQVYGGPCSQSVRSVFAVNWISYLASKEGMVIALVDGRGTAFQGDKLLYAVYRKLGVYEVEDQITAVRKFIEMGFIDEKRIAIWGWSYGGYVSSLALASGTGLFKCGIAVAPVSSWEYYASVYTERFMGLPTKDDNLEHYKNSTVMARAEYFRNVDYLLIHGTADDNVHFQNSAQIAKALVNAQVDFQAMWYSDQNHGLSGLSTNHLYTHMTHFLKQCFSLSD
Experimental: Binding of BisG1-FAPα-FERL/DR4-FERR, BisG1-FAPα-FEAL/b12-FEAR and IgG1-FAPα-FERL to FAPα of species commonly used for nonclinical toxicology studies was assessed by flow cytometry using Expi293F cells transiently expressing FAPα from different animal species. IgG1-b12 was included as negative control.
Expi293F cells expressing recombinant FAPα from various species (human, cynomolgus monkey, dog, pig, rat or mouse) were seeded (20,000 cells/well) in 96-Well round bottom plates (Greiner Bio-one, Cat #650101). Antibody dilutions were prepared using FACS buffer, consisting of PBS (Capricorn Scientific, Cat #PBS-10XA, diluted to 1×PBS in distilled water)+1% BSA (Roche, Cat #10735086001)+0.02% Sodium Azide (Bio-World, Cat #41920044-3). Plates were centrifuged, supernatant was removed, and cells were resuspended in 100 μL of antibody dilutions (concentration range 30-0.00017 μg/mL with three-fold serial dilutions using FACS buffer) of BisG1-FAPα-FERL/DR4-FERR, BisG1-FAPα-FEAL/b12-FEAR, IgG1-FAPα-FERL and IgG1-b12 and incubated for 30 min at 4° C. […] After 30 min incubation at 4° C., cells were washed with FACS buffer and resuspended in FACS buffer supplemented with TO-PRO-3 Iodide viability marker (Invitrogen, Cat #T3605, diluted 1:4,000). Antibody binding to viable cells (gMFI of PE on TO-PRO-3 negative cells) was analyzed by flow cytometry on a FACS Celesta and FACS_Diva software (first two experiments) or iQue® 3 and FlowJo software (last experiment). gMFI was determined and visualized using GraphPad Prism. Binding curves were analyzed using nonlinear regression analysis. The concentration (pg/mL) at which 50% of the maximal effect was observed (EC₅₀) was derived from the fitted curves.

[3] = target: T1, human DR4 (Death Receptor 4), cell …; assay: flow cytometry, MDA-MB-231 cells, average ± SEM

B1: BisG1-FAPα-FERL/DR4-FERR (bispecific antibody, human IgG1, kappa, lambda)
heavy 1: EVQLLESGGGLVQPGGSPRLSCEASGFTFSSYALSWVRQAPGKGLEWVSAISGSGGGRYYADSVKGRFTISRDNSKNTLFLQMNSLRAEDTAVYYCAKEGYSSSGTYWDHWGQGTLVTVSSASTKGPSVFPLAPSSKSTSGGTAALGCLVKDYFPEPVTVSWNSGALTSGVHTFPAVLQSSGLYSLSSVVTVPSSSLGTQTYICNVNHKPSNTKVDKRVEPKSCDKTHTCPPCPAPEFERGPSVFLFPPKPKDTLMISRTPEVTCVVVDVSHEDPEVKFNWYVDGVEVHNAKTKPREEQYNSTYRVVSVLTVLHQDWLNGKEYKCKVSNKALPAPIEKTISKAKGQPREPQVYTLPPSREEMTKNQVSLTCLVKGFYPSDIAVEWESNGQPENNYKTTPPVLDSDGSFLLYSKLTVDKSRWQQGNVFSCSVMHEALHNHYTQKSLSLSPG
light 1: AIQMTQSPSSVSASVGDRVTITCRASQGVSSWLAWYQQKPGRAPKLLIYVASTLQSGVPSRFSGSGSGTDFTLTINSLQPEDFATYYCQQANSFPPTFGQGTRLEMKRTVAAPSVFIFPPSDEQLKSGTASVVCLLNNFYPREAKVQWKVDNALQSGNSQESVTEQDSKDSTYSLSSTLTLSKADYEKHKVYACEVTHQGLSSPVTKSFNRGEC
heavy 2: QVQLQESGPGLVKPSGTLSLTCAVSGGSISSYSWWSWIRQPPGKGLEWIGELYHSGSTNYNPSLKSRVTISVDKSKNQFSLKLRSVTAADTAVYYCVRGVATIDYWGQGTLVTVSSASTKGPSVFPLAPSSKSTSGGTAALGCLVKDYFPEPVTVSWNSGALTSGVHTFPAVLQSSGLYSLSSVVTVPSSSLGTQTYICNVNHKPSNTKVDKRVEPKSCDKTHTCPPCPAPEFERGPSVFLFPPKPKDTLMISRTPEVTCVVVDVSHEDPEVKFNWYVDGVEVHNAKTKPREEQYNSTYRVVSVLTVLHQDWLNGKEYKCKVSNKALPAPIEKTISKAKGQPREPQVYTLPPSREEMTKNQVSLTCLVKGFYPSDIAVEWESNGQPENNYKTTPPVLDSDGSFFLYSRLTVDKSRWQQGNVFSCSVMHEALHNHYTQKSLSLSPG
light 2: QSALTQPPSASGSPGQSVTISCTGTSSDVGGYNFVSWYQQDPGKAPKLLIYEVTKRPSGVPDRFSGSKSGNTASLTVSGLQAEDEADYYCSSYAGSNNVMFGGGTKLTVLGQPKAAPSVTLFPPSSEELQANKATLVCLISDFYPGAVTVAWKADSSPVKAGVETTTPSKQSNNKYAASSYLSLTPEQWKSHRSYSCQVTHEGSTVEKTVAPTECS
notes: Human IgG1 bispecific made by controlled Fab-arm exchange of IgG1-FAPα-FERL and IgG1-DR4-FERR; monovalent for FAPα and for DR4; also called GEN1057
EC50 [1]: 0.48 µg/mL
EC50 [2]: 0.32 µg/mL
EC50 [3]: 1.18 µg/mL
